Measured values from patent US20200339967, “CAS12C COMPOSITIONS AND METHODS OF USE” (The Regents of the University of California, published 2020).

T1: Cas12c_1 (C2c3_1)
T1 chain: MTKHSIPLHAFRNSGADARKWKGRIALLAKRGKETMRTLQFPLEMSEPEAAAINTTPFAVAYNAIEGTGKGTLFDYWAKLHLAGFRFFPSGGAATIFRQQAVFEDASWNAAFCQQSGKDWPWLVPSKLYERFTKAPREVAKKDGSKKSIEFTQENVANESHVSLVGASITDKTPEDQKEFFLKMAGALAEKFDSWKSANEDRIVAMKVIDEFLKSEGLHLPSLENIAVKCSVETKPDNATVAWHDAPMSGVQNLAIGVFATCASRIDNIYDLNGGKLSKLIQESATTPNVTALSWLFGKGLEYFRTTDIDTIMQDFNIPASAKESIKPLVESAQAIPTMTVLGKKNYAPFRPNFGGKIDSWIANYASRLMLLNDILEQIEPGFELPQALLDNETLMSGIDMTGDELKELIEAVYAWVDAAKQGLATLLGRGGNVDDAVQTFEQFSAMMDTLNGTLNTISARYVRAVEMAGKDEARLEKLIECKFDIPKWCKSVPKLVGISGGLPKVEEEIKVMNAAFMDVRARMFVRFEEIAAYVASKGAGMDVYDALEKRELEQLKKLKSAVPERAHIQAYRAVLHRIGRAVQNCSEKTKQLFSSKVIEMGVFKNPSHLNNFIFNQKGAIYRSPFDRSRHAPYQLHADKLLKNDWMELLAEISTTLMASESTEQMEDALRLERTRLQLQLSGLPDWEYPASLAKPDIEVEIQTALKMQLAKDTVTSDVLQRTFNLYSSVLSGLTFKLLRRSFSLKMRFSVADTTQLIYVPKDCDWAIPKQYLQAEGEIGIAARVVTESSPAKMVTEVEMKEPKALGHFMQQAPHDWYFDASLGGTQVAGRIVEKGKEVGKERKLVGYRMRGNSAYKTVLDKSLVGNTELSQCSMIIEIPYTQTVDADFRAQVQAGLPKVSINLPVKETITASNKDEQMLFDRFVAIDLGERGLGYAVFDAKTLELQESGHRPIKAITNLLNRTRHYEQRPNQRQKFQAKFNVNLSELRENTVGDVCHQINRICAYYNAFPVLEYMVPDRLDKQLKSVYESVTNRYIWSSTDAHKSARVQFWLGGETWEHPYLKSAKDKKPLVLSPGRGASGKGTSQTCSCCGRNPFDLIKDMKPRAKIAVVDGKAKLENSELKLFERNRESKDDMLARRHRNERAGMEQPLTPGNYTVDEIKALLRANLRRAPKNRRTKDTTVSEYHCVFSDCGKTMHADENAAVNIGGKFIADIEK

B1: Cas12c_1 trancRNA (short) (ssRNA)
RNA: AUACCACCCGUGCAUUUCUGGAUCAAUGAUCCGUACCUCAAUGUCCGGGCGCGCAGCUAGAGCGACCUGAAAUCU
B2: Cas12c_1 trancRNA (long) (ssRNA)
RNA: AUACCACCCGUGCAUUUCUGGAUCAAUGAUCCGUACCUCAAUGUCCGGGCGCGCAGCUAGAGCGACCUGAAAUCUGCACGAAAACCGGCGAAAGCCGGUUUUUUGU

How the values were obtained:
[1] = target: T1, Cas12c_1 (C2c3_1); assay: pulldown; trancRNA co-purified with Cas12c and guide RNA; long vs short form not distinguished in text
[2] = target: T1, Cas12c_1 (C2c3_1); assay: pulldown; trancRNA co-purified with Cas12c and guide RNA; RNA sequencing and urea-PAGE; long vs short form not distinguished in text
From the text: FIG. 3. The Cas12c CRISPR/Cas locus (for the Cas12c_1 protein) was transferred to and expressed in E. coli. Results from the RNA mapping of the Cas12c locus are presented (Top). In addition, the Cas12c protein was tagged and purified, and the RNA that was associated with the protein was sequenced, and results from the RNA mapping are presented (bottom). Both mapping results indicated the existence of a highly transcribed non-coding transcript adjacent to the Cas1-encoding sequence but on the opposite side of the Cas1-encoding sequence as the CRISPR array (Small repeating aligned arrows represent the repeats of the CRISPR array). The highly transcribed noncoding RNA is not complementary to the directed repeat as are transactivating CRISPR RNAs (tracrRNA). The transactivating noncoding RNA is referred herein as “trancRNA”.
FIG. 4. RNAs that pulled down (co-purified) with the Cas12c protein were run on urea-PAGE gels, confirming the presence of guide RNA and trancRNA.

Binder	binding result [1]	binding result [2]
B1	binds	–
B2	–	binds
